Tests used:
[1] = target: T1, purified human soluble LR11 (human, UniProt Q92673 82-2137, limits assumed); test: sandwich ELISA, immobilized mouse IgG, liquid-phase biotinylated M3
T1 construct: Natural shed soluble form from serum (Lot. 061208); Also used for native soluble LR11 measured directly in human serum and cerebrospinal fluid; also called purified human LR11; soluble LR11 in human serum

[2] = target: T2, purified rabbit soluble LR11 (rabbit, UniProt Q95209 82-2136, limits assumed); test: as above
T2 construct: also called purified rabbit LR11; soluble LR11 in rabbit serum

[3] = target: T1, purified human soluble LR11; test: sandwich ELISA, immobilized mouse IgG, liquid-phase biotinylated M5
[4] = target: T2, purified rabbit soluble LR11; test: as above
[5] = target: T1, purified human soluble LR11; test: sandwich ELISA, immobilized mouse IgG, liquid-phase biotinylated R14
[6] = target: T2, purified rabbit soluble LR11; test: as above
[7] = target: T1, purified human soluble LR11; test: sandwich ELISA, immobilized mouse IgG, liquid-phase biotinylated R23
[8] = target: T2, purified rabbit soluble LR11; test: as above
[9] = target: T1, purified human soluble LR11; test: sandwich ELISA, immobilized mouse IgG, liquid-phase biotinylated A2-2-3
[10] = target: T2, purified rabbit soluble LR11; test: as above
[11] = target: T1, purified human soluble LR11; test: sandwich ELISA, immobilized mouse IgG, liquid-phase biotinylated mouse IgG
[12] = target: T2, purified rabbit soluble LR11; test: as above
[13] = target: T1, purified human soluble LR11; test: affinity capture from serum on RAP/GST bound to Glutathione Sepharose
[14] = target: T2, purified rabbit soluble LR11; test: as above

T2 sequence (Q95209 82-2136 limits assumed): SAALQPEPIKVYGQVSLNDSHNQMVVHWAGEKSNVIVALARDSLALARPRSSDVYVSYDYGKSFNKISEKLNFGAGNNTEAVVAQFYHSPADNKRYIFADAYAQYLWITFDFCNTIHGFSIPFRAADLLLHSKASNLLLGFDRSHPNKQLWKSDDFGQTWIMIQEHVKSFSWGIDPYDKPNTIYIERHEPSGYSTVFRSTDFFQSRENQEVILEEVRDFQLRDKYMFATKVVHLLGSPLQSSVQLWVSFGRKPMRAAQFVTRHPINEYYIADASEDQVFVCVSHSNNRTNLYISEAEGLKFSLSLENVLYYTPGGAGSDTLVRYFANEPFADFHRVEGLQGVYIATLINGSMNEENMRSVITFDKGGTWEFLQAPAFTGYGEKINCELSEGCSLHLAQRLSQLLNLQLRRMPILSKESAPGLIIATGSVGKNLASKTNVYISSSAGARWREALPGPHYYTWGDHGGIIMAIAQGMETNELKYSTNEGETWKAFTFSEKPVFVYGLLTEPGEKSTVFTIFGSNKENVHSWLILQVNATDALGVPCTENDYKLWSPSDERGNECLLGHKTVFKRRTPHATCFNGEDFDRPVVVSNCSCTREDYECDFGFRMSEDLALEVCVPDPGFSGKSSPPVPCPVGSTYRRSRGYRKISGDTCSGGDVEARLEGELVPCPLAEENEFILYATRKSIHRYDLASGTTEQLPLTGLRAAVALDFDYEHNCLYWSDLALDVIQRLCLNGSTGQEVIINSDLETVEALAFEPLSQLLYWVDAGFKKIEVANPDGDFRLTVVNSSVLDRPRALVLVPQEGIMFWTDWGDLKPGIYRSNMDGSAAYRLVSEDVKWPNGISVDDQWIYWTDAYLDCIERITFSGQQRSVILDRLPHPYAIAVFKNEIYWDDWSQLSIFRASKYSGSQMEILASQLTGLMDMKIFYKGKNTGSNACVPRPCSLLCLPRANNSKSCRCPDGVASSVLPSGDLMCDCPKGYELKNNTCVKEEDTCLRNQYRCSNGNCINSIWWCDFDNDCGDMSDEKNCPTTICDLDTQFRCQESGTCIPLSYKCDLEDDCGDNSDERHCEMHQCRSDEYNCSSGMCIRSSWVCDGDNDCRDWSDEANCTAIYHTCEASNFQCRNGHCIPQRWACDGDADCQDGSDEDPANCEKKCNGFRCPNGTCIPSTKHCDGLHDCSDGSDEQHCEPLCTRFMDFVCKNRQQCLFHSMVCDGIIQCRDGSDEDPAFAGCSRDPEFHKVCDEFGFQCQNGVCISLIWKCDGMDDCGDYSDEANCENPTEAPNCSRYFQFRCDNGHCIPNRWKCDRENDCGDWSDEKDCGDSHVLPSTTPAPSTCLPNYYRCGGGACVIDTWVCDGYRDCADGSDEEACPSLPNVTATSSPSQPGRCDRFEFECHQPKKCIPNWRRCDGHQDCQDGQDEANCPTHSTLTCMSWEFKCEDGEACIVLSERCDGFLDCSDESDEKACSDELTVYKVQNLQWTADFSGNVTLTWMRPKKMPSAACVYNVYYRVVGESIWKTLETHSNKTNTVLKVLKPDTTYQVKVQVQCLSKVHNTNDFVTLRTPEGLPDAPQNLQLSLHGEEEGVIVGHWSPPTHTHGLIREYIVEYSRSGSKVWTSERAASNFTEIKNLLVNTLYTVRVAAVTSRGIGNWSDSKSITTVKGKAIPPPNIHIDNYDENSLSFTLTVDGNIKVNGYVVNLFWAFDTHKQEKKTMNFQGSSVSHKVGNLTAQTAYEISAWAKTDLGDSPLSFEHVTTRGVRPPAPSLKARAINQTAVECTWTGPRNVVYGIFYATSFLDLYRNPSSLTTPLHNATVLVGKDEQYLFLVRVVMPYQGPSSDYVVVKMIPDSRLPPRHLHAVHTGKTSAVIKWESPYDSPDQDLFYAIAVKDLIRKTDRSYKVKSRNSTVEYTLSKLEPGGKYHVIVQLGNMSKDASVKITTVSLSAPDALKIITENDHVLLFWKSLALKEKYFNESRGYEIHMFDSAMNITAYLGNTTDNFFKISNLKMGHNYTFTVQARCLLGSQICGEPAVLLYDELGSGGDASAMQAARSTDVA
T1 sequence (Q92673 82-2137 limits assumed): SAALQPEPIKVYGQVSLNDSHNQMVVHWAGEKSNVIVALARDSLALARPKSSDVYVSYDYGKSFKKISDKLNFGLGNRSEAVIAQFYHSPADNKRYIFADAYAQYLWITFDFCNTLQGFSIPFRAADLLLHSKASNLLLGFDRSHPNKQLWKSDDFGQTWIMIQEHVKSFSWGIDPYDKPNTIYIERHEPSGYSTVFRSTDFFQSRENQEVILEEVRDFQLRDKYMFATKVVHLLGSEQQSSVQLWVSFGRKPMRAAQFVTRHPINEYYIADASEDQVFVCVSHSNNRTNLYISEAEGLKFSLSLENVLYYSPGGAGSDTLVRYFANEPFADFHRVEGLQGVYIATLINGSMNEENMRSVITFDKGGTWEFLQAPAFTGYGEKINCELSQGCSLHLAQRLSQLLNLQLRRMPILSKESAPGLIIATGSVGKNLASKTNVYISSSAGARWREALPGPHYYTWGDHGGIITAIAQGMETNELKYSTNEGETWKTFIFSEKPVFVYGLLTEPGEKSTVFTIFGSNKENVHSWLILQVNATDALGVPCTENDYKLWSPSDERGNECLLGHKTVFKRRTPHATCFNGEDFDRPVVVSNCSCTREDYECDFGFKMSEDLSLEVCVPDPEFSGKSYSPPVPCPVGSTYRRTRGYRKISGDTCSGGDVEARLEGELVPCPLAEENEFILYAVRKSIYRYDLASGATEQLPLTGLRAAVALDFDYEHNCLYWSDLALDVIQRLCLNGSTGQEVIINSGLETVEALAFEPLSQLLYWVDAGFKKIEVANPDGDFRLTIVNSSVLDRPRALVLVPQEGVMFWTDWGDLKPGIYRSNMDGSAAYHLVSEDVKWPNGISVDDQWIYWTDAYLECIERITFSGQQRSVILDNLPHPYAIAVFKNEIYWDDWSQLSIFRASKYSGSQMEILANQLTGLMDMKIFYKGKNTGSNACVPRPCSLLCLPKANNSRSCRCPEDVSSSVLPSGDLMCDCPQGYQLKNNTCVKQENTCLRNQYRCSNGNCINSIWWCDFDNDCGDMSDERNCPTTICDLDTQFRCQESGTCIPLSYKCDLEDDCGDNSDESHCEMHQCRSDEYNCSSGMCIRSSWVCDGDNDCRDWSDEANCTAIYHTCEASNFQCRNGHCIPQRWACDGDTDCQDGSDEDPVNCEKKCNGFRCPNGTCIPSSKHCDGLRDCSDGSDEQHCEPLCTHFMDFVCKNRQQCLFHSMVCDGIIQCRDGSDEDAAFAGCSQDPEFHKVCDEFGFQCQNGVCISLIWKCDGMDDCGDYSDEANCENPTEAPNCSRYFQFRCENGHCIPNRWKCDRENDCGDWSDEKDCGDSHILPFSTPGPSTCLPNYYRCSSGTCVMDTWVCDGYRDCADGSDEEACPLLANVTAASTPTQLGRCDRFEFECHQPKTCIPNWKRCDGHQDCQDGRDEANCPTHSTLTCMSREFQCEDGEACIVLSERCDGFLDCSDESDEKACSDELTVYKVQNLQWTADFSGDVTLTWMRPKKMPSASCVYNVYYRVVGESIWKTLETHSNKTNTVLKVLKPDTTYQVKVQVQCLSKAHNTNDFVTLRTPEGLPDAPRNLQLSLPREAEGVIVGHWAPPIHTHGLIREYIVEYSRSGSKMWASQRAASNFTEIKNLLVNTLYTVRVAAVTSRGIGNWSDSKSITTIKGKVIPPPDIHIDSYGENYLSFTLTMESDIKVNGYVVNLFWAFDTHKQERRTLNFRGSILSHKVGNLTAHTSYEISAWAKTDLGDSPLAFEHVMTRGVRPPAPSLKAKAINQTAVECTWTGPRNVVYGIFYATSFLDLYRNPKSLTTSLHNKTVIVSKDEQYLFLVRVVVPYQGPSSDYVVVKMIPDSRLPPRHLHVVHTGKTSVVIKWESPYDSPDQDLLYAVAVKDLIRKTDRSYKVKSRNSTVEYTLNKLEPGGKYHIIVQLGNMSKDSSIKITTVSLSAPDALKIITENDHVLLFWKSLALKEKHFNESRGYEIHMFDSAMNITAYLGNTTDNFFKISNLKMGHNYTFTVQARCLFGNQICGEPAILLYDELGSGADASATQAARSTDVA

Row | Molecule | Absorbance (492 nm) (Absorbance (492 nm)) [1] | Absorbance (492 nm) (Absorbance (492 nm)) [2] | Absorbance (492 nm) (Absorbance (492 nm)) [3] | Absorbance (492 nm) (Absorbance (492 nm)) [4] | Absorbance (492 nm) (Absorbance (492 nm)) [5] | Absorbance (492 nm) (Absorbance (492 nm)) [6] | Absorbance (492 nm) (Absorbance (492 nm)) [7] | Absorbance (492 nm) (Absorbance (492 nm)) [8] | Absorbance (492 nm) (Absorbance (492 nm)) [9] | Absorbance (492 nm) (Absorbance (492 nm)) [10] | Absorbance (492 nm) (Absorbance (492 nm)) [11] | Absorbance (492 nm) (Absorbance (492 nm)) [12] | binding result [13] | binding result [14]
1 | mouse IgG (negative control) (antibody) | 0.024 | -0.017 | 0.007 | -0.017 | -0.017 | -0.019 | -0.02 | -0.026 | 0.015 | -0.017 | -0.003 | 0.043 | – | –
2 | RAP/GST fusion protein (other, human, UniProt P30533 35-357, looked up, Expressed in E. coli DH5alpha and adsorbed on Glutathione Sepharose 4 FF; also called RAP-Sepharose resin; RAP (receptor associated protein); not shown: GST encoded by vector pGEX2T (GE Healthcare Bio Science)) YSREKNQPKPSPKRESGEEFRMEKLNQLWEKAQRLHLPPVRLAELHADLKIQERDELAWKKLKLDGLDEDGEKEARLIRNLNVILAKYGLDGKKDARQVTSNSLSGTQEDGLDDPRLEKLWHKAKTSGKFSGEELDKLWREFLHHKEKVHEYNVLLETLSRTEEIHENVISPSDLSDIKGSVLHSRHTELKEKLRSINQGLDRLRRVSHQGYSTEAEFEEPRVIDLWDLAQSANLTDKELEAFREELKHFEAKIEKHNHYQKQLEIAHEKLRHAESVGDGERVSRSREKHALLEGRTKELGYTVKKHLQDLSGRISRARHNEL | – | – | – | – | – | – | – | – | – | – | – | – | binds | binds
